This passage reports half-maximal binding and IC50 results from patent US20020173621A1, “Method for producing dimerized polypeptide fusions” (ZymoGenetics, Inc., published 2002).

The IC50 is the midpoint of a concentration-inhibition curve. Lower therefore signals higher potency.

Assay [1] has as its target tetrameric PDGF β-receptor analog (purified from pSDL114+pSDL113 co-transfected cells) (human). In words: saturation binding, analog plated at 12.1 ng/ml on goat anti-human IgG coated wells.
For assay [2] the target is unchanged. Briefly: saturation binding, analog plated at 24.3 ng/ml on goat anti-human IgG coated wells.
In assay [3] the target is T1, tetrameric PDGF β-receptor analog (purified from pSDL114+pSDL113 co-transfected cells) (human).
T1 heavy: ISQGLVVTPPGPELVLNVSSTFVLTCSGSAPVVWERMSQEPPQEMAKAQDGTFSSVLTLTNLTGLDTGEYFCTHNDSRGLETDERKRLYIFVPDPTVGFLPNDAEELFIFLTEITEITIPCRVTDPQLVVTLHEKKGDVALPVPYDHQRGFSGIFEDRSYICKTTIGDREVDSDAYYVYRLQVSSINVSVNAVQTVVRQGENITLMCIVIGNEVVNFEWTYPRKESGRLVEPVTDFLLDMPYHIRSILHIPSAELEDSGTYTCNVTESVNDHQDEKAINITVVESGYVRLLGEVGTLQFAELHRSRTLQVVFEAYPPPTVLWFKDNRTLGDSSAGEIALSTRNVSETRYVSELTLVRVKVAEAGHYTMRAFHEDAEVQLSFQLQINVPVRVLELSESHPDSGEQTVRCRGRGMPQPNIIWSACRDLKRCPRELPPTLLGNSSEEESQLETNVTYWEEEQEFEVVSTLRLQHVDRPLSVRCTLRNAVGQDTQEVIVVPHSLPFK
T1 light: T1 heavy
Briefly: solid phase radioreceptor competition binding assay, analog plated at 48.6 ng/ml, unlabeled PDGF-BB against 125I-labeled PDGF-BBTyr. The protocol:
In a solid phase radioreceptor competition binding assay (RRA), the wells of 96-well microtiter plates were coated with 100 μl of 2 μg/ml affinity purified goat anti-human IgG (Cappel Labs) diluted in 0.1 M Na₂HCO₃, pH 9.6. After an eighteen hour incubation at 4° C., the wells were washed once with ELISA C. The wells were blocked by incubation for 2 hours at 37° C. with 175 μl/well ELISA B. […] The unbound receptor was removed, and the test wells were incubated with increasing concentrations of serially diluted, unlabeled PDGF-BB (diluted in binding media. Following a two hour incubation at room temperature, the wells were washed three times with binding media. One hundred microliters of 5 ng/ml ¹²⁵I-labeled PDGF-BBTyr (Example 18.F.) was added to each well, and the plates were incubated for an additional two hours at room temperature. The wells were washed three times with binding media followed by a 5 minute incubation with 100 μl/well of 0.1 M citrate, pH 2.5. The samples were harvested and counted in a gamma counter.

As for “PDGF-BBTyr (PDGF-BB mutant molecule having a tyrosine replacing the phenylalanine at position 23) (from UniProt P01127) (ligand)”, the half-maximal binding came out at 0.8 ng/mL in assay [1] and 0.82 ng/mL in assay [2].

B1: PDGF-BB (ligand)
chain: SLGSLTIAEPAMIAECKTRTEVFEISRRLIDRTNANFLVWPPCVEVQRCSGCCNNRNVQCRPTQVQLRPVQVRKIEIVRKKPIFKKATVTLEDHLACKCETVAAARPVT
In the case of B1, the IC50 in assay [3] was found to be 8 ng/mL.
